Laboratory results as given in the supplement of paper PMC10065799, “High-throughput profiling of sequence recognition by tyrosine kinases and SH2 domains using bacterial peptide display” (eLife, 2023).

What was measured:
[1] = tested on: AncSZ; experiment: phosphorylation enrichment, bacterial display (enrichment ratio); higher = better substrate or ligand; peptides without Tyr show the background
[2] = target: EPHB1 (UniProt P54762); experiment: as above
[3] = target: EPHB2 (UniProt P29323); experiment: as above
[4] = target: FGFR1 (UniProt P11362); experiment: as above
[5] = target: FGFR3 (UniProt P22607); experiment: as above
Chain of FGFR3 (P22607 whole entry, looked up): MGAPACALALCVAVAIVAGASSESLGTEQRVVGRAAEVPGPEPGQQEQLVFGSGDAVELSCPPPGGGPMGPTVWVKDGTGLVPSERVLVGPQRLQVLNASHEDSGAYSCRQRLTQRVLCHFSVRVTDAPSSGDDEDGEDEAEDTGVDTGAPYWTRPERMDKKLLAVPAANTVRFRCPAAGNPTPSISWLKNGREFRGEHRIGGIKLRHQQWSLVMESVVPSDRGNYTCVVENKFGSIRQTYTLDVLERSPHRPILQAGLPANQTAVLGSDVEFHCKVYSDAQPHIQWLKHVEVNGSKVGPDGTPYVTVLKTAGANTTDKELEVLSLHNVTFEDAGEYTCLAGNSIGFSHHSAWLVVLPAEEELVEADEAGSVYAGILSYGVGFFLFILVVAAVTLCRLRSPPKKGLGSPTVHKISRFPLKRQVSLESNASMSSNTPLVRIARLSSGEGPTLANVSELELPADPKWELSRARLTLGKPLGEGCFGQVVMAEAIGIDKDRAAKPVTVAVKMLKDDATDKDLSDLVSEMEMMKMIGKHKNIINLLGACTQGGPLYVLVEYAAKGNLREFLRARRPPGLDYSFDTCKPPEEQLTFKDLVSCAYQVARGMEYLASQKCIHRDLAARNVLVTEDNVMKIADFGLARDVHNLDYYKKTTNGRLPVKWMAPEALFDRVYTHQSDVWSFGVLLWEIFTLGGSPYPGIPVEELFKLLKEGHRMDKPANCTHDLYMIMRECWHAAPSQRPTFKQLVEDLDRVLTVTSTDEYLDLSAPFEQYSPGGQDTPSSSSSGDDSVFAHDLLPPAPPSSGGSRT

[6] = tested on: Fer (mouse); experiment: as above
[7] = target: Fes (UniProt P07332); experiment: as above
Chain of Fes (P07332 whole entry, looked up): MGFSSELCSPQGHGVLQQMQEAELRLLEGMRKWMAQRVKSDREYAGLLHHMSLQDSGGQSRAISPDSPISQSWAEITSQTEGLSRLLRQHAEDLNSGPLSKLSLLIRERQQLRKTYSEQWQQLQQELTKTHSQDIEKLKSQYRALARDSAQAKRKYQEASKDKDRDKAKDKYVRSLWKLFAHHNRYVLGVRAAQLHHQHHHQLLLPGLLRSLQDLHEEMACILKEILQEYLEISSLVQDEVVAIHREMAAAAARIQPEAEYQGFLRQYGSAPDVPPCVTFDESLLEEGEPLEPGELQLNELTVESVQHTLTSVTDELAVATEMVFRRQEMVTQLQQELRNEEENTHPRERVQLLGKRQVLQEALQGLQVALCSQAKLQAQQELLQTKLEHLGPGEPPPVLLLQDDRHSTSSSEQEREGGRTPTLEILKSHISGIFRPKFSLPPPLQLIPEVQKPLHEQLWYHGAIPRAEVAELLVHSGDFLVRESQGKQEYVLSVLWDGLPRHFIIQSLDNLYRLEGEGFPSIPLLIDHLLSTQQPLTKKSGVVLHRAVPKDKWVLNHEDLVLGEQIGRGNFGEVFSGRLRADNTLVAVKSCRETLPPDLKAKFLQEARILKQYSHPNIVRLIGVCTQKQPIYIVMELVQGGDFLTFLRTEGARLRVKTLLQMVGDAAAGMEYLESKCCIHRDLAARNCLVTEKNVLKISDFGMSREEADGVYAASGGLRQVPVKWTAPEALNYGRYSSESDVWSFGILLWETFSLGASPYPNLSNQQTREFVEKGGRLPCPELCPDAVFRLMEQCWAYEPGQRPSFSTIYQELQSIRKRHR

[8] = target: Fyn (UniProt P06241); experiment: as above
Chain of Fyn (P06241 whole entry, looked up): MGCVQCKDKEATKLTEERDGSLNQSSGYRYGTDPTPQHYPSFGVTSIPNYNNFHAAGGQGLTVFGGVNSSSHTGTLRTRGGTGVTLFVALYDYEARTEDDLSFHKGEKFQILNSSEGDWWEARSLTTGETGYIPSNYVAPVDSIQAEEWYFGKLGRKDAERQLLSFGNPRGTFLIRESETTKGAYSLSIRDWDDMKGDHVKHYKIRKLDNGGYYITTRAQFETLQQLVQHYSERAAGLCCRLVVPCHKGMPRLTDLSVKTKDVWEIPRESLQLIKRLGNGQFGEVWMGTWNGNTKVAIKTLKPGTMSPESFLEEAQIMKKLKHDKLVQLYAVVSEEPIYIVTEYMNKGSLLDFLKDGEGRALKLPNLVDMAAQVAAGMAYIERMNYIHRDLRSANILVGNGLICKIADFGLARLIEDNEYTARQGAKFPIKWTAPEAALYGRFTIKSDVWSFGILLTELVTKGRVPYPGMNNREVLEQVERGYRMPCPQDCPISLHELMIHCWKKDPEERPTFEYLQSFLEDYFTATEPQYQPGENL

[9] = target: Hck (UniProt P08631); experiment: as above
Chain of Hck (P08631 whole entry, looked up): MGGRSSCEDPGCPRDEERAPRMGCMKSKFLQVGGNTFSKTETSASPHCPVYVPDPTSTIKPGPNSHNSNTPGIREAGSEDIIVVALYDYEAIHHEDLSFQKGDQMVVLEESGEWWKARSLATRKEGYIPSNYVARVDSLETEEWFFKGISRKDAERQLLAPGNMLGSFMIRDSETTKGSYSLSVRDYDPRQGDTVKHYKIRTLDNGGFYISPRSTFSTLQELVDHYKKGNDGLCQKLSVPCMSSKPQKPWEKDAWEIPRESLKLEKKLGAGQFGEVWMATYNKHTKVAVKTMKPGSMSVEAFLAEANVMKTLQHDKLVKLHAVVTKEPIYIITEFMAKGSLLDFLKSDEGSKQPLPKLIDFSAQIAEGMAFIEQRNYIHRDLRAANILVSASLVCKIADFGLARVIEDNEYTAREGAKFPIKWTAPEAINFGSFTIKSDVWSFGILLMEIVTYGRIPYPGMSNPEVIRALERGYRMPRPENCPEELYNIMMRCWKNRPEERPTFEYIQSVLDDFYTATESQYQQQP

[10] = target: Jak2 (UniProt O60674); experiment: as above
Chain of Jak2 (O60674 whole entry, looked up): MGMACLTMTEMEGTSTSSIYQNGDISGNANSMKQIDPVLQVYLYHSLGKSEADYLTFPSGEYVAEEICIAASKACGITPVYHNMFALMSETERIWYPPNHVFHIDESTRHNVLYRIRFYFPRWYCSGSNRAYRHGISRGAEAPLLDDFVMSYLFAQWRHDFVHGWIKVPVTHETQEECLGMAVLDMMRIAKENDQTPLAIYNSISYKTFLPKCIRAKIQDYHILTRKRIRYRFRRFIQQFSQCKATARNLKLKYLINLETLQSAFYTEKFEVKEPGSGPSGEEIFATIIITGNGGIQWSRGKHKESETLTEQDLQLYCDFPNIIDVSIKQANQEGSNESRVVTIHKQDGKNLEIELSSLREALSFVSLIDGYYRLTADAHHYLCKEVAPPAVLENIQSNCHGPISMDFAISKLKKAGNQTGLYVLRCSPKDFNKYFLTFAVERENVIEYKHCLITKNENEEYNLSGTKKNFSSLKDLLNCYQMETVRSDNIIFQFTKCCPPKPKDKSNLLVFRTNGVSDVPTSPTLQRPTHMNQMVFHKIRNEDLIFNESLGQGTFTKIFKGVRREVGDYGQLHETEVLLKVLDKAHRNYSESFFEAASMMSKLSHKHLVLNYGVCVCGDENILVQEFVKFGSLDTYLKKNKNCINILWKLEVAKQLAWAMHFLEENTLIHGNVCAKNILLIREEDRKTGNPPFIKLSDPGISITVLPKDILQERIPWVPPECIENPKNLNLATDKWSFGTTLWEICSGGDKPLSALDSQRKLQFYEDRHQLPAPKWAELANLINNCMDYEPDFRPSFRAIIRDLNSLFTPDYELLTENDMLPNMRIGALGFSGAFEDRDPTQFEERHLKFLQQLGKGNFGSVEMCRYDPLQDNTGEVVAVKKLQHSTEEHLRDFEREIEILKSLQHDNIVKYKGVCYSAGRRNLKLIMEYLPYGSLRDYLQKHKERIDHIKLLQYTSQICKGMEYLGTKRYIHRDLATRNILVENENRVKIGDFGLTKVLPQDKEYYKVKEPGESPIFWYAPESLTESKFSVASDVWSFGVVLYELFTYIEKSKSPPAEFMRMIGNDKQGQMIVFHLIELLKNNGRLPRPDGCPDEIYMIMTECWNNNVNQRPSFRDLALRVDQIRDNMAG

[11] = target: MERTK (UniProt Q12866); experiment: as above
Chain of MERTK (Q12866 whole entry, looked up): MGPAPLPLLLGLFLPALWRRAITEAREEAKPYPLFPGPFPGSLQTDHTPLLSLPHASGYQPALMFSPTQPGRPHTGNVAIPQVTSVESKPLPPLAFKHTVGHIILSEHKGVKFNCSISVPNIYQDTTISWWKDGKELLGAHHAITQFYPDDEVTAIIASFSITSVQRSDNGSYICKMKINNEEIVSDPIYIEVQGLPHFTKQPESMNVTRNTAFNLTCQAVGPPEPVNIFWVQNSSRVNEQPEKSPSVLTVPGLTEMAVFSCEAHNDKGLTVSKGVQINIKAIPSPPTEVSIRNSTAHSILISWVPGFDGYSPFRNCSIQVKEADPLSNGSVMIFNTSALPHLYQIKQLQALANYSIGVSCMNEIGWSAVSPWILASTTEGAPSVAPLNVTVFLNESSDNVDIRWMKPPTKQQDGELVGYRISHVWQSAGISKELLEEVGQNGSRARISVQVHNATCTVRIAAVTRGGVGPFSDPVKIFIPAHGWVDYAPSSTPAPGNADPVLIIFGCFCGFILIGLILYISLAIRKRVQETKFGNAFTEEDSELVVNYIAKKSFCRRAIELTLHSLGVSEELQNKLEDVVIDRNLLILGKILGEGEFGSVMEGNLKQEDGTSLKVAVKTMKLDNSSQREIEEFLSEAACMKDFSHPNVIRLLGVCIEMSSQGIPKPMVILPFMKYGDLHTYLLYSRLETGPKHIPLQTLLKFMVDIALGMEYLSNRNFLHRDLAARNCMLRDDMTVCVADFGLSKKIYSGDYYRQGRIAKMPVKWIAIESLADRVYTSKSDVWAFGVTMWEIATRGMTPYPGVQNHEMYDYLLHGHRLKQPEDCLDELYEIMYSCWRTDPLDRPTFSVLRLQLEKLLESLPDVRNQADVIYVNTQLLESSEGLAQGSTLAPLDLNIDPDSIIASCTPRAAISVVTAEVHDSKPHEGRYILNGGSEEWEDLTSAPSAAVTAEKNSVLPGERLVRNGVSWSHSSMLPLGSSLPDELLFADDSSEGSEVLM

[12] = tested on: c-Abl (mouse); experiment: as above
[13] = tested on: c-Src; experiment: as above
[14] = target: Grb2 SH2 (UniProt P62993); experiment: SH2 binding enrichment of the phosphorylated peptide, bacterial display (enrichment ratio); higher = better substrate or ligand; peptides without Tyr show the background
[15] = target: SHP2-C SH2; experiment: as above
[16] = target: c-Src SH2; experiment: as above
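For SH2 binding enrichment of the phosphorylated peptide, bacterial display in this document: peptide library displayed on the E. coli surface as eCPX fusions, selected cells deep-sequenced, score is each peptide's frequency after selection divided by its frequency in the input.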
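For phosphorylation enrichment, bacterial display in this document: 11-residue human phosphosite peptides and single-mutation variants displayed on the E. coli surface, counted by deep sequencing, each peptide's frequency after selection divided by its frequency in the unselected input library; frequency after pTyr selection over input frequency; kinase dosed for 20-30% of maximal phosphorylation in three min.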

| SH2 binding enrichment [14] | SH2 binding enrichment [15] | SH2 binding enrichment [16] | Sequence | phosphorylation enrichment [1] | phosphorylation enrichment [2] | phosphorylation enrichment [3] | phosphorylation enrichment [4] | phosphorylation enrichment [5] | phosphorylation enrichment [6] | phosphorylation enrichment [7] | phosphorylation enrichment [8] | phosphorylation enrichment [9] | phosphorylation enrichment [10] | phosphorylation enrichment [11] | phosphorylation enrichment [12] | phosphorylation enrichment [13] |
| --- | --- | --- | --- | --- | --- | --- | --- | --- | --- | --- | --- | --- | --- | --- | --- | --- |
| 0.92 | 1.19 | 2.12 | IYRAAYFGVYD [SLC25A4_Y191] | 1.15 | 1.2 | 1.33 | 0.554 | 0.771 | 0.937 | 1.21 | 5.53 | 5.56 | 0.982 | 1.26 | 0.955 | 4.49 |
| 1.38 | 1.21 | 1.45 | KASGKYYAMKI [AKT3_Y173] | 0.499 | 0.329 | 0.411 | 0.565 | 0.536 | 0.335 | 0.563 | 0.359 | 0.529 | 0.431 | 0.455 | 0.518 | 0.399 |
| 1.03 | 0.79 | 0.652 | KASRKYYAMKI [AKT3_Y173_G171R] | 0.416 | 0.22 | 0.304 | 0.481 | 0.353 | 0.589 | 0.476 | 0.267 | 0.339 | 0.484 | 0.5 | 0.393 | 0.257 |
| 0.682 | 0.471 | 0.41 | KDIENHIQDGK [RAD50_Y964_Y964H] | 0.69 | 0.378 | 0.542 | 0.41 | 0.445 | 0.414 | 0.684 | 0.488 | 0.463 | 0.621 | 0.413 | 0.392 | 0.446 |
| 0.817 | 0.756 | 0.558 | KEDSAYGSQSV [NFKB2_Y868] | 0.978 | 0.502 | 0.521 | 0.428 | 0.584 | 0.409 | 1.07 | 0.535 | 0.583 | 1.11 | 0.454 | 0.911 | 0.502 |
| 0.912 | 0.761 | 0.482 | KEELAYLKKNH [KRT14_Y248] | 0.597 | 0.413 | 0.422 | 0.451 | 0.515 | 0.375 | 0.742 | 0.395 | 0.541 | 0.512 | 0.333 | 0.528 | 0.35 |
| 0.8 | 0.795 | 0.587 | KFVKMCDNHQL [MYO9A_Y203_Y203C_YF] | 0.483 | 0.425 | 0.384 | 0.429 | 0.45 | 0.358 | 0.603 | 0.419 | 0.42 | 0.513 | 0.378 | 0.519 | 0.441 |
| 0.873 | 0.537 | 0.421 | KGERGYPGTLG [COL4A1_Y348_P352L] | 0.597 | 0.339 | 0.439 | 0.375 | 0.484 | 0.345 | 0.505 | 0.392 | 0.448 | 0.475 | 0.403 | 0.398 | 0.337 |
